{"source": "patent US5874272A", "about": "“Inosine-guanosine kinase” (Kyowa Hakko Kogyo Co., Ltd., priority 1998, dated 1999)", "molecules": {"B1": {"name": "inosine-guanosine kinase (Escherichia coli K-12) (protein)", "chain": "MKFPGKRKSKHYFPVNARDPLLQQFQPENETSAAWVVGIDQTLVDIEAKVDDEFIERYGLSAGHSLVIEDDVAEALYQELKQKNLITHQFAGGTIGNTMHNYSVLADDRSVLLGVMCSNIEIGSYAYRYLCNTSSRTDLNYLQGVDGPIGRCFTLIGESGERTFAISPGHMNQLRAESIPEDVIAGASALVLTSYLVRCKPGEPMPEATMKAIEYAKKYNVPVVLTLGTKFVIAENPQWWQQFLKDHVSILAMNEDEAEALTGESDPLLASDKALDWVDLVLCTAGPIGLYMAGFTEDEAKRKTQHPLLPGAIAEFNQYEFSRAMRHKDCQNPLRVYSHIAPYMGGPEKIMNTNGAGDGALAALLHDITANSYHRSNVPNSSKHKFTWLTYSSLAQVCKYANRVSYQVLNQHSPRLTRGLPEREDSLEESYWDR", "notes": "made in house; host or cells: Escherichia coli"}}, "key": {"[1]": {"experiment": "Optimum pH and optimum temperature of the enzyme activity", "type": "biochemical, Escherichia coli", "conditions": "30° C., 20 minutes; PIPES, HEPES, TAPS, CHES buffers 100 mM", "description": "The activity of the inosine-guanosine kinase obtained is determined as follows. A reaction solution (hereafter referred to as reaction solution a) having a composition of 100 mM HEPES buffer (pH 7.2), 10 mM MgSO4, 50 mM KCl, 1 mM ATP and 1 mM inosine is brought into contact with the inosine-guanosine […] During the course of reaction, a part of the reaction solution is subjected to sampling intermittently. After the reaction solution is diluted to 1/20 with 0.2M NaH2 PO4 (adjusted the pH to 2.6 with H3 PO4) to stop the reaction, an amount of 5'-IMP in the stopped reaction solution is quantitatively determined by HPLC. Analysis by HPLC is made by using 0.2M NaH2 PO4 (pH 2.6) at a flow rate of 1 ml/min. as an eluting solution and Asahipak GS-320H (manufactured by Asahi Chemical Co., Ltd.) as a column. Detection of components was made by the absorbance at UV absorbance at 254 nm as an index. Quantitative determination was made by comparing absorbancy with that of the standard. […]\nIn the method for determination of inosine-guanosine kinase activity described above, the activity is determined by varying the temperature of 0° to 50° C. and 31° to 41° C. […]"}, "[2]": {"experiment": "pH, temperature and storage stability of the enzyme (residual activity)", "type": "physicochemical, Escherichia coli", "description": "This enzyme is treated at 4° C. for 16 hours in an aqueous solution containing 50 mM buffer (CHES; pH 10.0-9.0, TAPS; pH 8.2, HEPES; pH 8.3-7.3 or PIPES; pH 6.6) and 5 mM […] under both conditions in the absence of KCl and in the presence of 250 mM KCl. After the treatment, the activity is determined. Where treated in a pH range of 6.6 to 9.0, the treated enzyme maintains the residual activity of 90% or more than the activity of intact standard enzyme and stably keeps its activity in a pH range of 6.6 to 9.0. The addition of KCl accelerates storage stability.\nA reaction solution composed of 20% glycerol, 50 mM Tris-hydrochloride buffer (pH 8), 5 mM β-mercaptoethanol and 100 mM NaCl is contacted with inosine-guanosine kinase in a concentration of about 10 μg protein/ml and treated at a temperature of 26° to 50° C. for 15 minutes to determine the residual activity at each temperature. As the result, since treatment at 40° C. or lower inactivates the enzyme by only 20% or less, the enzyme is stable up to 40° C. In contrast, the activity is rapidly lost by treatment at 50° C.\nAfter 6 g of the -20° C.-stored cells which had been obtained in (6) was suspended in 24 ml of purification buffer [20% glycerol, 50 mM Tris-hydrochloride buffer (pH 8) and 5 mM β-mercaptoethanol], the suspension was disrupted with a homogenizer (manufactured by Brown Biotech Co., Ltd., glass bead diameter of 0.1 mm). The homogenate was centrifuged to give about 20 ml of the supernatant. Protamine sulfate was added to the supernatant in a final concentration of 0.4% followed by centrifugation. Thus high molecular nucleic acid components were removed as precipitates. The resulting supernatant was passed through Sephadex G-50 column which had been previously equilibrated with the purification buffer. The column was eluted with the purification buffer to give about 30 ml of desalted active fraction. After the fraction was passed through DEAE Sepharose column which had been previously equilibrated with the purification buffer, 60 ml of the purification buffer containing 0.1M NaCl was added thereto. Then the desired enzyme was eluted with 200 ml of the purification buffer having an NaCl linear density slope of 0.1M to 0.6M. From the active fractions eluted, 3 ml of the fraction having the highest enzyme concentration was collected. This active fraction was passed through Sephacryl S-200 column and eluted with the purification buffer containing 0.1M NaCl. By gel filtration, the active fraction was collected. Finally 10 ml of purified enzyme (1.4 μg protein/ml) was obtained. This purified enzyme was analyzed by SDS-polyacrylamide electrophoresis but no impurity was detected. The enzyme is stably stored at -20° C. in the purification buffer containing 0.1M NaCl."}, "Km value determination [3]": {"substrate": "OC[C@H]1O[C@@H](n2cnc3c(O)ncnc32)[C@H](O)[C@@H]1O", "experiment": "Km value determination", "type": "biochemical, Escherichia coli", "conditions": "other: 2 mM ATP, 10 mM MgSO4, 300 mM KCl, 0.1M HEPES buffer (pH 7.2)"}, "Km value determination [4]": {"substrate": "Nc1nc2c(ncn2[C@@H]2O[C@H](CO)[C@@H](O)[C@H]2O)c(=O)[nH]1", "experiment": "Km value determination", "type": "biochemical, Escherichia coli", "conditions": "other: 2 mM ATP, 10 mM MgSO4, 300 mM KCl, 0.1M HEPES buffer (pH 7.2)"}}}
{"molecule": "B1", "values": [{"measurement": "optimum pH", "setting": "[1]", "result": "6.9-8.2"}, {"measurement": "residual activity after pH treatment", "setting": "[2]; 4° C., 16 hours, pH range of 6.6 to 9.0, with or without 250 mM KCl, versus intact standard enzyme", "result": "≥ 90", "unit": "%"}, {"measurement": "temperature up to which the enzyme is stable", "setting": "[2]; 15 minutes treatment, pH 8", "result": "up to 40 °C"}, {"measurement": "storage stability (in words)", "setting": "[2]; -20° C. in purification buffer containing 0.1M NaCl", "result": "stably stored"}, {"measurement": "inactivation by heat treatment", "setting": "[2]; treatment at 40° C. or lower, 15 minutes, pH 8", "result": "≤ 20", "unit": "%"}, {"measurement": "activity after heat treatment (in words)", "setting": "[2]; treatment at 50° C., 15 minutes", "result": "rapidly lost"}, {"measurement": "Km", "setting": "Km value determination [3]", "result": 2100, "unit": "µM"}, {"measurement": "Km", "setting": "Km value determination [4]", "result": 6.1, "unit": "µM"}]}
